From patent US20260242478A1 (published 2026)
Like-named read-outs stand apart in the source and are kept apart here. One block for each binder: values may come before it. Where no end group is shown, it is not given here.

How the values were obtained:
Peptide-219 = molecular target: T1, Peptide-219 (cysteine pairing not given here; also: biotinylated, site not given here); experiment: BLI, biotinylated peptide on sensor
T1 peptide: HVKLCKPAWMCQGL

Peptide-225 = molecular target: T2, Peptide-225 (cysteine pairing not given here; also: biotinylated, site not given here); experiment: BLI, biotinylated peptide on sensor
T2 peptide: IPKSCIPSWMCTGF

Peptide-227 = molecular target: T3, Peptide-227 (cysteine pairing not given here; also: biotinylated, site not given here); experiment: BLI, biotinylated peptide on sensor
T3 peptide: LDNWCKPSWMCTGF

Peptide-230 = molecular target: T4, Peptide-230 (cysteine pairing not given here; also: biotinylated, site not given here); experiment: BLI, biotinylated peptide on sensor
T4 peptide: VTKWCIPPWMCEVT

Peptide-232 = molecular target: T5, Peptide-232 (cysteine pairing not given here; also: biotinylated, site not given here); experiment: BLI, biotinylated peptide on sensor
T5 peptide: LDKWCVPKWMCSGL

Peptide-233 = molecular target: T6, Peptide-233 (cysteine pairing not given here; also: biotinylated, site not given here); experiment: BLI, biotinylated peptide on sensor
T6 peptide: GEKWCIPDWMCSGF

Peptide-235 = molecular target: T7, Peptide-235 (cysteine pairing not given here; also: biotinylated, site not given here); experiment: BLI, biotinylated peptide on sensor
T7 peptide: VEKLCTPIWMCLGF

Peptide-236 = molecular target: T8, Peptide-236 (cysteine pairing not given here; also: biotinylated, site not given here); experiment: BLI, biotinylated peptide on sensor
T8 peptide: DVKLCKPEWMCYGL

Peptide-239 = molecular target: T9, Peptide-239 (cysteine pairing not given here; also: biotinylated, site not given here); experiment: BLI, biotinylated peptide on sensor
T9 peptide: IDIRCTPIWMCVGF

Peptide-263 = molecular target: T10, Peptide-263 (cysteine pairing not given here; also: biotinylated, site not given here); experiment: BLI, biotinylated peptide on sensor
T10 peptide: AVKACIPEWMCIGF

Peptide-267 = molecular target: T11, Peptide-267 (cysteine pairing not given here; also: biotinylated, site not given here); experiment: BLI, biotinylated peptide on sensor
T11 peptide: FTNYCVPSWMCTGF

Peptide-268 = molecular target: T12, Peptide-268 (cysteine pairing not given here; also: biotinylated, site not given here); experiment: BLI, biotinylated peptide on sensor
T12 peptide: VEKVCKPVWMCVGF

Peptide-270 = molecular target: T13, Peptide-270 (cysteine pairing not given here; also: biotinylated, site not given here); experiment: BLI, biotinylated peptide on sensor
T13 peptide: ESRLCVPAWMCAGF

Peptide-271 = molecular target: T14, Peptide-271 (cysteine pairing not given here; also: biotinylated, site not given here); experiment: BLI, biotinylated peptide on sensor
T14 peptide: EDILCKPKWMCEGF

Peptide-274 = molecular target: T15, Peptide-274 (cysteine pairing not given here; also: biotinylated, site not given here); experiment: BLI, biotinylated peptide on sensor
T15 peptide: ITPVCKPLWMCSGL

Peptide-277 = molecular target: T16, Peptide-277 (cysteine pairing not given here; also: biotinylated (site not given here)); experiment: BLI, biotinylated peptide on sensor
T16 peptide: VVIKCKPEWMCSGF

Peptide-282 = molecular target: T17, Peptide-282 (cysteine pairing not given here; also: biotinylated (site not given here)); experiment: BLI, biotinylated peptide on sensor
T17 peptide: IVVKCVPSWMCEGF

Peptide-283 = molecular target: T18, Peptide-283 (cysteine pairing not given here; also: biotinylated (site not given here)); experiment: BLI, biotinylated peptide on sensor
T18 peptide: TVAYCKPAWMCQGF

Peptide-284 = molecular target: T19, Peptide-284 (cysteine pairing not given here; also: biotinylated (site not given here)); experiment: BLI, biotinylated peptide on sensor
T19 peptide: TEVRCTPPWMCLGF

Peptide-285 = molecular target: T20, Peptide-285 (cysteine pairing not given here; also: biotinylated (site not given here)); experiment: BLI, biotinylated peptide on sensor
T20 peptide: VERLCTPAWMCHGF

Peptide-286 = molecular target: T21, Peptide-286 (cysteine pairing not given here; also: biotinylated (site not given here)); experiment: BLI, biotinylated peptide on sensor
T21 peptide: VLKYCIPDWMCAGI

Peptide-179 [1] = molecular target: T22, Peptide-179 (cysteine pairing not given here; also: biotinylated (site not given here)); experiment: ELISA, biotinylated peptide captured on neutravidin, PSMA Fab titrated
T22 construct: PSMA peptide mask (P2)
T22 peptide: LMKWCTPRWMCAAE

Peptide-180 [2] = molecular target: T23, Peptide-180 (cysteine pairing not given here; also: biotinylated (site not given here)); experiment: as above
T23 construct: PSMA peptide mask (P2)
T23 peptide: IAVLCQPNWMCAGF

Peptide-181 = molecular target: T24, Peptide-181 (cysteine pairing not given here; also: biotinylated (site not given here)); experiment: as above
T24 construct: PSMA peptide mask (P2)
T24 peptide: PELRCVPFWMCSFN

Peptide-179 [3] = molecular target: T22, Peptide-179; experiment: as above
Peptide-179 [4] = molecular target: T22, Peptide-179; experiment: BLI (Octet), biotinylated peptide on streptavidin sensor, PSMA Fab titrated, 1:1 model
Peptide-180 [5] = molecular target: T23, Peptide-180; experiment: as above
Peptide-194 = molecular target: T25, Peptide-194 (cysteine pairing not given here; also: biotinylated (site not given here)); experiment: as above
T25 construct: PSMA peptide mask (P2)
T25 peptide: SKLLCVPPWMCYHV

Peptide-202 = molecular target: T26, Peptide-202 (cysteine pairing not given here; also: biotinylated (site not given here)); experiment: as above
T26 construct: PSMA peptide mask (P2)
T26 peptide: MCQWDELNYWMDCD

Peptide-204 = molecular target: T27, Peptide-204 (cysteine pairing not given here; also: biotinylated (site not given here)); experiment: as above
T27 construct: PSMA peptide mask (P2)
T27 peptide: QCTWNEKTWWMECE

Peptide-205 = molecular target: T28, Peptide-205 (cysteine pairing not given here; also: biotinylated (site not given here)); experiment: as above
T28 construct: PSMA peptide mask (P2)
T28 peptide: MCQWDKINYWMDCD

Ab-15 [6] = experiment: BLI (Octet): biotinylated peptide on sensor, Ab-15 titrated, 1:1 model
Ab-15 [7] = experiment: binding ELISA: biotinylated peptide on neutravidin plate, Ab-15 titrated
Ab-15 [8] = experiment: as above; remark: listed apart in the source
Ab-15 [9] = experiment: BLI (Octet): sensor loaded with 20 nM biotinylated peptide, 100 nM Ab-15
Ab-15 [10] = experiment: BLI (Octet): sensor loaded with 200 nM biotinylated peptide, 100 nM Ab-15;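 for t1/2: binding association and dissociation tracked in real time, fitted to a 1:1 binding model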
Ab-15 [11] = experiment: as above; remark: listed apart in the source
Ab-15 [12] = experiment: competition ELISA: peptide titrated against 1 nM Ab-15; competitor plate-bound CD28
Ab-15 [13] = experiment: as above; remark: listed apart in the source

binding result (Peptide-219): binds
binding result (Peptide-225): binds
binding result (Peptide-227): binds
binding result (Peptide-230): binds
binding result (Peptide-232): binds
binding result (Peptide-233): binds
binding result (Peptide-235): binds
binding result (Peptide-236): binds
binding result (Peptide-239): binds
binding result (Peptide-263): binds
binding result (Peptide-267): binds
binding result (Peptide-268): binds
binding result (Peptide-270): binds
binding result (Peptide-271): binds
binding result (Peptide-274): binds
binding result (Peptide-277): binds
binding result (Peptide-282): binds
binding result (Peptide-283): binds
binding result (Peptide-284): binds
binding result (Peptide-285): binds
binding result (Peptide-286): binds
B1: PSMA Fab (SEQ ID NOs: 19, 20) (Fab, V domains shown)
VH: QVQLVESGGGVVQPGRSLRLSCAASGFAFSRYGMHWVRQAPGKGLEWVAVIWYDGSNKYYADSVKGRFTISRDNSKNTQYLQMNSLRAEDTAVYYCARGGDFLYYYYYGMDVWGQGTTVTVSS
VL: DIQMTQSPSSLSASVGDRVTITCRASQGISNYLAWYQQKTGKVPKFLIYEASTLQSGVPSRFSGGGSGTDFTLTISSLQPEDVATYYCQNYNSAPFTFGPGTKVDIKR
notes: also called 006 PSMA Fab; anti-PSMA Fab

EC50 (Peptide-179 [1]): 5.9 nM
EC50 (Peptide-180 [2]): 33 nM
EC50 (Peptide-181): 3 nM
EC50 (Peptide-179 [3]): 120 nM
Off rate t1/2 (Peptide-179 [4]): 1.09 min
Off rate t1/2 (Peptide-180 [5]): 0.75 min
Off rate t1/2 (Peptide-194): < 1 min
Off rate t1/2 (Peptide-202): < 1 min
Off rate t1/2 (Peptide-204): < 1 min
Off rate t1/2 (Peptide-205): < 1 min
B2: PSMA Fab (SEQ ID NOs: 19, 20) (Fab, V domains shown)
VH: B1 VH
VL: B1 VL
notes: as for B1

Kd (Ab-15 [6]): 15.1 nM
t1/2 (Ab-15 [6]): 15.5 min
EC50 (Ab-15 [7]): 4 nM
EC50 (Ab-15 [8]): 1 nM
Octet signal (20 nM peptide) (Ab-15 [9]): 0.509
Octet signal (Ab-15 [10]): 2.03
t1/2 (Ab-15 [10]): 9.8 min
Octet signal (200 nM peptide) (Ab-15 [11]): 1.8
IC50 (Ab-15 [12]): 60 nM
IC50 (Ab-15 [13]): 200 nM
Binder: MDWCPRDLWVHCFA (cysteine pairing not given here; also: biotinylated, site not given here, CD28 peptide mask) [Peptide-41]
